From patent US9459207B2, “Method of characterizing interactions and screening for effectors” (Wyatt Technology Corporation, priority 2010, dated 2016)
Values belong to the molecule of their own block, whether it stands above or below them.

Biological target: chymotrypsin (Bos taurus, UniProt P00766)
Experiment: Dynamic light scattering heteroassociation experiment (rh vs molar ratio of the two proteins, fitted)
Assay type: binding
Experimental: The method begins with sample preparation to be described presently. The DLS data are collected, and then analyzed in a four-step procedure. First, the concentrations of all components in a solution at a given time are calculated from postulated stoichiometries, association constant(s), Ka, and the known a priori concentrations of the stock solutions of the constituent molecule(s). […] Third, the modeled concentration data and modeled hydrodynamic radius data are combined to model the expected dynamic light scattering data at each sample ratio. Fourth, a best fit of the models to the collected DLS data is obtained. Thus, some or all parameters are adjusted to produce a best fit to the DLS data. Such fitting might be achieved using a least squares method, for example. These four steps of data analysis are discussed in detail in the following, and variations are possible, as would be apparent to one skilled in the art of DLS or particle associations.
In this example, to prepare the sample series for both self- and hetero-association, two stock solutions are mixed manually. For analysis of hetero-association, a high concentration, on the order of 0.5 mg/mL, solution of each pure molecule is prepared in the same solvent. For larger molecules, such as those greater than, say, 50 kDa, lower concentrations may be used. For analysis of self-association reactions, the molecular solution is prepared at the highest concentration to be tested; the second solution is the pure solvent in which the sample molecule was prepared. All solutions are filtered through a 0.02 μm filter.
For either type of analysis, aliquots of the two solution mixtures are dispensed into a 1536 well microtiter plate in a series of ratios from 100% A:0% B to 0% A:100% B, or some subset thereof, where the number of ratios prepared depends upon the desired detail of analysis. Typically, 10-20 ratios are used.
Following the dispensing of the sample, the microtiter plate is centrifuged at a rate and duration sufficient to remove any bubbles present in the samples; typically 1000 g for 15 seconds. Wells may then be covered to avoid evaporation, for example, by dispensing approximately 10 μL of paraffin oil into each well. The plate is then re-centrifuged prior to being placed into a dynamic light scattering instrument programmed, for example, to make 25 one-second dynamic light scattering measurements per well.
As an example of the inventive method, we consider two species A and B associating to form species AB with equilibrium association constant KAB: A+B ? AB. In this example we will use fitting procedure C, using the average hydrodynamic radius found by fitting the autocorrelation function measured for each sample to a cumulants model. We will assume that Equation (11) is valid. […]

binding to chymotrypsin (in words) (negative control, FIG. 5): no binding | association constant (negative control, pH 6.7): 0
Molecule: lysozyme: protein, 14.4 kDa, negative control

a value (association conformation parameter) (DLS fit, rAB={rA^a+rB^a}^1/a): 2.26 | association constant (DLS fit, soybean trypsin inhibitor fitted with an incompetent fraction of chymotrypsin): 3.8e+06 M⁻¹
B1: soybean trypsin inhibitor: protein, molar mass of 22 kDa, binds chymotrypsin (protein, UniProt P01070 25-205, looked up)
Trypsin inhibitor A: DFVLDNEGNPLENGGTYYILSDITAFGGIRAAPTGNERCPLTVVQSRNELDKGIGTIISSPYRIRFIAEGHPLSLKFDSFAVIMLCVGIPTEWSVVEDLPEGPAVKIGENKDAMDGWFRLERVSDDEFNNYKLVFCPQQAEDDKCGDIGISIDHDDGTRRLVVSKNKPLVVQFQKLDKESL
